The record followed here is PMC5999394, “Design principles of a microtubule polymerase” (eLife, 2018).

Data set [1] deals with T1, plus-end blocked yeast αβ-tubulin (β:T175R,V179R) (S. cerevisiae, UniProt P09733 1-447; P02557 1-457, T175R | V179R).
T1 construct: Tub1p (yeast α-tubulin), S. cerevisiae; Tub2p (yeast β-tubulin), S. cerevisiae; also called LR1
The data set is described as follows: AUC; sedimentation velocity, 50,000 rpm, 20°C, absorbance at 229 nm; RB100 (25 mM Tris pH 7.5, 100 mM NaCl, 1 mM MgCl2, 1 mM EGTA) with 20 µM GTP; 0.3 µM tubulin with 0.1-3 µM TOG1-tail; isotherms fitted with a 1:1 effective-particle model. The conditions noted are these: both partners purified.

Data set [2] concerns the target T2, side-blocked yeast αβ-tubulin (β:F281A) (S. cerevisiae, UniProt P09733 1-447; P02557 1-457, F281A).
T2 construct: Tub1p (yeast α-tubulin), S. cerevisiae; Tub2p (yeast β-tubulin), S. cerevisiae; also called Tub2:F281A
The data set is described as follows: SEC; gel filtration on Shodex KW-803 in BRB80 (80 mM PIPES pH 6.9, 1 mM MgCl2, 1 mM EGTA) with 50 μM GTP; 1 μM TOG1-tail and 1 μM tubulin, alone or mixed, equilibrated on ice for 20 min. To be noted: both partners purified.

Data set [3] deals with T3, wild-type yeast αβ-tubulin (unpolymerized) (S. cerevisiae, UniProt P09733 1-447; P02557 1-457).
T3 construct: Tub1p (yeast α-tubulin), S. cerevisiae; Tub2p (yeast β-tubulin), S. cerevisiae; also called WT tubulin; unpolymerized tubulin
The description is as above. To be noted: both partners purified.

The target in data set [4] is T4, lateral-interface mutant yeast αβ-tubulin (α:H284A) (S. cerevisiae, UniProt P09733 1-447; P02557 1-457, H284A).
T4 construct: Tub1p (yeast α-tubulin), S. cerevisiae; Tub2p (yeast β-tubulin), S. cerevisiae; also called Tub1-H284A; Tub1:H284A
The data set is described as above. The conditions noted are these: both partners purified.

Data set [5] has as its target T5, wild-type yeast microtubules (polymerized wild-type yeast αβ-tubulin) (S. cerevisiae, UniProt P09733 1-447; P02557 1-457).
T5 construct: Tub1p (yeast α-tubulin), S. cerevisiae; Tub2p (yeast β-tubulin), S. cerevisiae; Polymer of m2; also called microtubule lattice; microtubule end
The data set is described as follows: TIRF microscopy, fluorescence intensity of the Stu2-eGFP spot on the growing microtubule end; end intensity dynamic assay; 5-300 nM Stu2-eGFP (titration, hyperbolic fit; apparent) or 200 nM variant; 0.8 μM wild-type yeast tubulin; 30°C. To be noted: both partners purified.

Data set [6] concerns the target T6, β:T238A yeast microtubules (polymerized Tub2:T238A αβ-tubulin) (S. cerevisiae, UniProt P09733 1-447; P02557 1-457, T238A).
T6 construct: Tub1p (yeast α-tubulin), S. cerevisiae; Tub2p (yeast β-tubulin), S. cerevisiae; also called β:T238A microtubules; mutant microtubules
The data set is described as follows: TIRF microscopy of Stu2-eGFP on dynamic microtubules (kymographs); axoneme-seeded unlabeled dynamic yeast microtubules on the cover slip; Stu2-eGFP variant (100-200 nM) with 0.5-0.8 μM unpolymerized yeast tubulin in imaging buffer (1X PEM, 50 µM GTP, 0.1 mg/mL BSA, antifade); 30°C. To be noted: both partners purified.

The target in data set [7] is T5, wild-type yeast microtubules …. The data set is described as follows: single-molecule TIRF microscopy, residence time on the growing microtubule end; 5 nM Stu2-eGFP variant with 1-1.5 µM unlabeled wild-type yeast tubulin; 100 ms streaming; one-phase exponential fit of the dwell times; 30°C. To be noted: both partners purified.
Data set [8] concerns the target T7, minus-end blocked yeast αβ-tubulin (α:T350E) (S. cerevisiae, UniProt P09733 1-447; P02557 1-457, T350E).
T7 construct: Tub1p (yeast α-tubulin), S. cerevisiae; Tub2p (yeast β-tubulin), S. cerevisiae; also called T350E α-tubulin
Put plainly: TIRF microscopy of Stu2-eGFP on stabilized microtubules; GTPγS-stabilized wild-type yeast microtubules held on the cover slip by His-Tag antibody; 100 nM Stu2-eGFP flowed in without or with 1 μM unpolymerized tubulin (wild type or mutant; mixed on ice for 10 min); imaging buffer; 30°C. To be noted: both partners purified.

Data set [9] deals with T1, plus-end blocked yeast αβ-tubulin …. Described as above. To be noted: both partners purified.
Data set [10] concerns the molecule itself. The data set is described as follows: single-molecule photobleaching (TIRF); fluorescence intensity trace of stationary Stu2-eGFP; steps of photobleaching counted.

B1: Stu2 TOG1 domain ('TOG1-tail', 1–317) (domain or fragment, S. cerevisiae, UniProt P46675 1-317, looked up)
chain: MSGEEEVDYTTLPLEERLTYKLWKARLEAYKELNQLFRNSVGDISRDDNIQIYWRDPTLFAQYITDSNVVAQEQAIVALNSLIDAFASSSLKNAHNITLISTWTPLLVEKGLTSSRATTKTQSMSCILSLCGLDTSITQSVELVIPFFEKKLPKLIAAAANCVYELMAAFGLTNVNVQTFLPELLKHVPQLAGHGDRNVRSQTMNLIVEIYKVTGNNSDLLEEILFKKLKPIQVKDLHKLFAKVGDEPSSSKMLFEWEKRELEKKRSQEEEARKRKSILSNDEGEYQIDKDGDTLMGMETDMPPSKQQSGVQIDTFS
notes: Stu2 (Stu2p), S. cerevisiae, TOG1 domain with tail, residues 1-317; source: expression and purification previously described (Ayaz et al., 2012, 2014)
For B1, the binding result in [1], in [2], in data set [3] and in data set [4] was “binds” throughout.

B2: wild-type Stu2-eGFP (Stu2 residues 1–888, full-length; dimer) (natural protein, S. cerevisiae, UniProt P46675 1-888, looked up)
chain: MSGEEEVDYTTLPLEERLTYKLWKARLEAYKELNQLFRNSVGDISRDDNIQIYWRDPTLFAQYITDSNVVAQEQAIVALNSLIDAFASSSLKNAHNITLISTWTPLLVEKGLTSSRATTKTQSMSCILSLCGLDTSITQSVELVIPFFEKKLPKLIAAAANCVYELMAAFGLTNVNVQTFLPELLKHVPQLAGHGDRNVRSQTMNLIVEIYKVTGNNSDLLEEILFKKLKPIQVKDLHKLFAKVGDEPSSSKMLFEWEKRELEKKRSQEEEARKRKSILSNDEGEYQIDKDGDTLMGMETDMPPSKQQSGVQIDTFSMLPEETILDKLPKDFQERITSSKWKDRVEALEEFWDSVLSQTKKLKSTSQNYSNLLGIYGHIIQKDANIQAVALAAQSVELICDKLKTPGFSKDYVSLVFTPLLDRTKEKKPSVIEAIRKALLTICKYYDPLASSGRNEDMLKDILEHMKHKTPQIRMECTQLFNASMKEEKDGYSTLQRYLKDEVVPIVIQIVNDTQPAIRTIGFESFAILIKIFGMNTFVKTLEHLDNLKRKKIEETVKTLPNFSIASGSTHSTIETNKQTGPMENKFLLKKSSVLPSKRVASSPLRNDNKSKVNPIGSVASASKPSMVAANNKSRVLLTSKSLATPKNVVANSTDKNEKLIEEYKYRLQKLQNDEMIWTKERQSLLEKMNNTENYKIEMIKENEMLREQLKEAQSKLNEKNIQLRSKEIDVNKLSDRVLSLENELRNMEIELDRNKKRNDTNLQSMGTISSYSIPSSTVSSNYGVKSLSSALPFKEEEDVRRKEDVNYERRSSESIGDLPHRVNSLNIRPYRKNGTGVSSVSDDLDIDFNDSFASEESYKRAAAVTSTLKARIEKMKAKSRREGTTRT
notes: Stu2 (Stu2p), S. cerevisiae, residues 1-888; also called Stu2p; WT; source: E. coli Arctic Express, purified (His60 Superflow, Strep-Tactin); not shown: eGFP, C-terminal, kept
As for B2, the EC50 (in general, the concentration giving half of the maximal effect) in data set [5] was found to be 19 nM. Further, the binding result in [6], in data set [8] and in data set [9] was “binds” each time. Also, the “characteristic residence time on the growing microtubule end” value in data set [7] stood at 2.2 s. In data set [10], the stoichiometry N (commonly a count of units in the complex or per binding partner) came out at 2.
